The values that follow come from PMC6401066, “A dynamically interacting flexible loop assists oligomerisation of the Caenorhabditis elegans centriolar protein SAS-6” (Scientific Reports, 2019).

The target of data set [1] is SAS-6 coiled coil (CC interface) (Caenorhabditis elegans) (UniProt O62479). Conditions: cited from earlier work.
Data set [2] concerns the molecule itself. Description: fluorescence polarisation; 1,5-IAEDANS on C100 of CeSAS-6N; polarisation against protein concentration in PBS; fit of an ideal self-association model; monomer to NN dimer; three independent experiments.
Data set [3] concerns the molecule itself. Briefly: FP.
Data set [4] deals with the molecule itself. Description: SEC; analytical SEC, Superdex 75 10/300 GL, PBS (20 mM sodium phosphate pH 7.0, 150 mM NaCl, 2 mM DTT); different protein concentrations, up to 10 mg/ml; self-association. In general terms: In gel filtration, larger molecules generally elute earlier.

Consider “SAS-6 coiled coil (CC interface) (from UniProt O62479)”, for which the Kd in data set [1] was 1000 nM.

B1: CeSAS-6N S123E variant (domain or fragment, C. elegans, UniProt O62479 1-168, looked up)
chain: MTSKIALFDQTLIASLLQPLSLNQPDFKAYKTKVKLKISEQRNETSGEKELKFEISRSDDFEFLFSETLNNEKYQILARDHDLTVDFDAFPKVIIQHLLCKNIVKNLEEDGEVDARKKAGYHEIADPGKPTEINIILDAEKNFCSFELFSKTPISKGKIFSIKLHAVR
modifications: 1,5-IAEDANS conjugated to C100 (fluorescence polarisation samples)
notes: SAS-6, C. elegans, N-terminal domain, amino acids 1-168, with S123E; source: E. coli BL21 (DE3), purified (His-Trap HP, thrombin cleavage, Sephadex G75 SEC); not shown: His6, N-terminal, cleaved
With B1, in data set [2], the “fold increase of NN affinity against CeSAS-6N WT” value is around 2 fold. This molecule yielded a Kd in data set [3] of 48 µM.

B2: C. elegans SAS-6 N-terminal domain, wild type (CeSAS-6N WT, amino acids 1-168) (domain or fragment, UniProt O62479 1-168, looked up)
chain: MTSKIALFDQTLIASLLQPLSLNQPDFKAYKTKVKLKISEQRNETSGEKELKFEISRSDDFEFLFSETLNNEKYQILARDHDLTVDFDAFPKVIIQHLLCKNIVKNLEEDGEVDARKKAGYHSIADPGKPTEINIILDAEKNFCSFELFSKTPISKGKIFSIKLHAVR
modifications: 1,5-IAEDANS conjugated to C100 (fluorescence polarisation samples)
notes: spindle assembly abnormal protein 6 (SAS-6), C. elegans, N-terminal domain, amino acids 1-168; Samples for NMR were isotopically labelled (15N) and carried no fluorophore; also called WT CeSAS-6N; source: E. coli BL21 (DE3), purified (His-Trap HP, thrombin cleavage, Sephadex G75 SEC); not shown: His6, N-terminal, cleaved
As to B2, the dissociation constant Kd in data set [2] was around 100 µM.

B3: C. elegans SAS-6 N-terminal domain plus a short stretch of the coiled coil, wild type (CeSAS-6N-CC WT, amino acids 1-215) (domain or fragment, UniProt O62479 1-215, looked up)
chain: MTSKIALFDQTLIASLLQPLSLNQPDFKAYKTKVKLKISEQRNETSGEKELKFEISRSDDFEFLFSETLNNEKYQILARDHDLTVDFDAFPKVIIQHLLCKNIVKNLEEDGEVDARKKAGYHSIADPGKPTEINIILDAEKNFCSFELFSKTPISKGKIFSIKLHAVRGDHLISHLLKICSSQAVKLSTFYKSADELASLRQKCGDLEKQVEKLS
notes: SAS-6, C. elegans, N-terminal domain plus a short stretch of the coiled coil, amino acids 1-215; Forms a dimer through the coiled coil (calculated mass of the dimer 48.8 kDa) that assembles further through the NN interface; also called WT CeSAS-6_(N-CC); source: E. coli BL21 (DE3), purified (His-Trap HP, thrombin cleavage, Sephadex G75 SEC); not shown: His6, N-terminal, cleaved
On to B3, for which the binding result in data set [4] is recorded as “binds”.

B4: CeSAS-6N-CC Δ103–130 (domain or fragment, C. elegans, UniProt O62479 1-215, looked up)
chain: MTSKIALFDQTLIASLLQPLSLNQPDFKAYKTKVKLKISEQRNETSGEKELKFEISRSDDFEFLFSETLNNEKYQILARDHDLTVDFDAFPKVIIQHLLCKNTEINIILDAEKNFCSFELFSKTPISKGKIFSIKLHAVRGDHLISHLLKICSSQAVKLSTFYKSADELASLRQKCGDLEKQVEKLS
notes: source: E. coli BL21 (DE3), purified (His-Trap HP, thrombin cleavage, Sephadex G75 SEC); not shown: His6, N-terminal, cleaved
For B4, the “stoichiometry N” value in data set [4] stood at 2.

For orientation: Kd means the free concentration of one partner at which half of the binding sites on the other are occupied at equilibrium, for simple one-to-one binding. As a reminder, the stoichiometry N is the number of molecules, sites or subunits per partner or assembly.
